# From US11193150B2, “Nepetalactol oxidoreductases, nepetalactol synthases, and microbes capable of producing nepetalactone” (Zymergen Inc., priority 2017, dated 2021)
# B1: NcatNOR34: candidate nepetalactol oxidoreductase (NOR) from Nepeta cataria, protein SEQ ID NO: 578 (protein, listed as Nepeta cataria)
# chain: MAFCRSSLLLRKALGGSRRAAAAATCSSAYACGWQSERGRWYSGGEGTTISAPGYHVNTAPSHMTGAVFWDKDKPITYEEFEMPRPKANEVLIKTKACGACHSDLHVIKGDLKFPCPCILGHEITGEVVEHGPLTETKYIERYPVGSKVIGAFIMPCGSCFYCSRGEDDLCEPYFAYNRAKGTLYDGQTRLFLRGSGKPVHMWSMSGLAEYCVTPVNGLGALPDTLPYAESSVLGCAVFTAYGAIAHAAEVKPGNSVAVIGIGGVGSSCLQIAKAFGASEIIAVDVEDGKLETAKTFGATHIINSRKEDAIAKIKELTDGRGVDIAVEAIGGPKTFAQCVGSVRAGGKAVMIGLSPTGGKGEVEITQLVRRKVKVIGSYGGRAMTDLPKLVELAEQGTFNLEAAVTRRYKFEEVAQAYQDLQNKTIVGRGVIEIM
# B2: NcatNOR15: candidate nepetalactol oxidoreductase (NOR) from Nepeta cataria, protein SEQ ID NO: 561 (protein, listed as Nepeta cataria)
# chain: MAKTPETEHPVKAFGYAATDNSGTFSPFKFSRRATGERDVQFKVLYCGVCHSDLHMVKNEWGVTHYPIVPGHEIVGVATEVGSKVEKVKVGDKVGVGVIVGSCRQCDQCSNDLENYCSKQILTYGAPYLDGTITRGGYSDIMVADEHFIIRWPENFPLDAGAPLLCAGITTYSPLRYFGLDKPGLRVGVNGLGGLGHVAVKFAKAFGTKVTVISSSLRKKKEAVEKLGVDEFLVSTDPEQMQAAIGTLDGIIDTVSAEHSVVSLLSLLKPHGRLIVVGAPEKPHQLPAFPLITGRKSISGSAIGGMKETQEMIDFAAKHNILPDVEVIPIDYINTAMERLLKSDVKYRFVIDVEKSLKA
# B3: GAR_NOR15: NOR candidate codon-optimized for S. cerevisiae (SEQ ID NO: 1393), expressed from pESC-URA (protein, listed as Nepeta cataria)
# chain: MADKEGEVVCVTGGSGFIGSWLVSLLLRRGYSVRATVKNLGDERETKHLEAIEGADSRLSLFQIDLLDYDSVATAVGDAAGVFHLASPCTIDQVNDPQRELLDPAIKGTLNVLKAAKNLGVRRVVVTSSISAMIASSNSLAETGEDCWIDEDYCRQNGLWYPVSKALAEKAAWKLAEENGLDIVVVNPGMVVGPILPPALNSSMQLMLHVLQGKDFFEGFFMGLVHVKDVALAQILLYENTSASGRHLCVESLSRYDDFAKQMEKLYPEYKLPRFSNNAQHGSLKSDAALKKLRDLGIEFAPLEQIVKDSIESLRSKGYIS
# B4: NcatNOR21: candidate nepetalactol oxidoreductase (NOR) from Nepeta cataria, protein SEQ ID NO: 566 (protein, listed as Nepeta cataria)
# chain: MAKSVNAVGWAARDTSGLLSPLKFARPAAGDRDVQFKVLYCGICHSDLHSIKNEWGNTQYPIVPGHEIVGVVTAVGPKATKFKAGDKVGVGCLVNSCRHCDQCAADLENYCPQLVQTYNSVLADGSVTYGGYSDVMTADEDFVIRWPENFPMDKGAPLLCAGVTTYSPLRYYGLDKPGLHIGVVGLGGLGHVAVKFAKAFGMKVTVISTSAGKKKEAIETLGADAFLISRDASEMQAAAGTLDGMIDTVSAQHPLPPLLSLLKPHGKLILVGAPEKPFELPAFPLLMGRKTVAGSVIGGLKETQEMIDFAAKHNLLPEVEMIPMDYVNTAMERLAKADVKYRFVIDVGNTLTKAD
# Assays:
# nepetalactol [1] = test: In vitro conversion of nepetalactol to nepetalactone by candidate NORs in clarified cell lysate with NAD+ or NADP+ (GC-MS); type: biochemical; conditions: clarified lysate of E. coli BL21 (DE3) expressing the candidate, 30° C., 2 hours
# Experimental: BL21 (DE3) strains were streaked out on LB plates containing kanamycin from glycerol stock and grown overnight at 37° C. A single colony was inoculated into 4 mL of LB medium containing kanamycin in 15 mL disposable culture tubes and incubated overnight at 30° C. with shaking at 250 rpm. 500 μL of the overnight culture was subcultured into 50 mL of LB medium containing kanamycin in a 250 mL baffled flask. The culture was grown at 37° C. and the optical density at 600 nm (OD600) was monitored. When OD600 reached between 0.6-1, the cultures were cooled on ice for 15 minutes. The cultures were then induced with 100 μM of isopropyl β-D-1-thiogalactopyranoside and incubated at 15° C. with shaking at 250 rpm for roughly 20 hours. Cultures were pelleted by centrifugation in 50 mL centrifuge tubes. The supernatant was decanted and the pellets were frozen at −20° C. for later processing.
# Pellets were thawed on ice and resuspended with 3 mL of cold lysis buffer: 50 mM sodium phosphate, pH=7.4, 100 mM sodium chloride. All remaining steps were performed either on ice or at 4° C. The cell mixture was transferred to a 15 mL centrifuge tube and disrupted with three rounds of sonication using the Branson Sonifier 450 with a double-level microtip at 70% amplitude. A single round of sonication consisted of 6 cycles of 10 seconds with the sonicator on, and 10 seconds off. Between each round, the cell mixture was allowed to sit on ice for a minute to cool. The lysed cell mixture was transferred to 1.7 mL centrifuge tubes and centrifuged at maximum speed in a microcentrifuge for 20 minutes. The supernatant (clarified cell lysate) was collected in a separate tube and used for in vitro characterization.
# The in vitro reactions were setup as follows: 2 μL of 100 mM NAD+ or NADP+ and 10 μL of 100 uM nepetalactol was added to 188 μL of the clarified cell lysate. The reactions were incubated at 30° C. shaking at 200 rpm for 2 hours. […] The organic layer was withdrawn and analyzed with gas chromatography coupled to mass spectrometry (GC-MS). […]
# nepetalactol [2] = test: Production of nepetalactone from nepetalactol in Saccharomyces cerevisiae strains expressing NOR candidates from 2μ plasmid pESC-URA; type: cell-based; conditions: 2% galactose, 100 mg/L of nepetalactol fed, 30° C., 24 hours
# Experimental: 300 μL of ethyl acetate was added to the cultures. The plates were sealed with a PlateLoc Thermal Microplate Sealer and the plates were shaken for one min at 750 rpm. The plates were centrifuged and the ethyl acetate layer was collected and analyzed by liquid chromatography coupled to mass spectrometry (LC-MS). Target analytes were quantified against authentic standards.
# The plasmids were individually transformed into chemically competent Saccharomyces cerevisiae cells as described in EXAMPLE 2. Transformants were selected on SD-URA agar plates. Three to four replicates were picked into SD-URA liquid medium and cultured at 30° C. for one to two days with shaking at 1000 rpm. Cultures were glycerol stocked at a final concentration of 16.6% glycerol and stored at −80° C. until later use.
# 10 μL of the glycerol stocked strains was inoculated into 300 μL of minimal media lacking uracil, and containing 4% glucose in 96-well plates to produce seed cultures. The plates were incubated at 30° C. at 1000 rpm for 1-2 days. 10 μL of the seed cultures was then inoculated into 300 μL of minimal media lacking uracil, and containing 2% galactose and 100 mg/L of nepetalactol. 30 μL of methyl oleate was next added to the wells. The main culture plates were further incubated at 30° C., 1000 rpm for 24 hours before assays were performed to assess cell growth and titer. […]
Molecule,oxidation of nepetalactol to nepetalactone (nepetalactol [1]),nepetalactone produced (titer) (nepetalactol [2]) [mg/L]
B1,can oxidize nepetalactol to nepetalactone,–
B2,can oxidize nepetalactol to nepetalactone,–
B3,–,93
B4,can oxidize nepetalactol to nepetalactone,–
